{"source": "patent US8835467B2", "about": "“SIR2 regulation” (Albert Einstein College of Medicine of Yeshiva University, priority 2003, dated 2014)", "test_system": "NC(=O)c1cccnc1", "assay": "Sir2 catalyzed base exchange with H4 N-terminal peptide", "format": "biochemical, yeast", "conditions": "other: 0 mM isonicotinamide"}
{"substance": "Yeast Sir2 (Saccharomyces cerevisiae S288C)", "values": [{"measurement": "Km", "value": 120, "unit": "µM"}]}
